# T1: APBA1_2, Q02410
# T1 sequence (Q02410 742-832, limits assumed, looked up): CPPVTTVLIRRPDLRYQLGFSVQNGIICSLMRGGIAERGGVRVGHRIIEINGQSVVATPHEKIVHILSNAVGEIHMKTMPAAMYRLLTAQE
# T2: APBA3_1, O96018
# T2 sequence (O96018 389-490, limits assumed, looked up): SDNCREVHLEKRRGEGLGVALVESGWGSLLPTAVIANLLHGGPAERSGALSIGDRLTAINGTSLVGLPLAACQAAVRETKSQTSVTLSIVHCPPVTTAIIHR
# T3: DFNB31_1, Q9P202
# T3 sequence (Q9P202 135-233, limits assumed, looked up): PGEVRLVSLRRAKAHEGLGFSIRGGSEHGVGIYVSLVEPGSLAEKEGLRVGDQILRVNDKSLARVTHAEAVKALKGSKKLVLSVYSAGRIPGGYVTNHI
# T4: DFNB31_3, Q9P202
# T4 sequence (Q9P202 811-907, limits assumed, looked up): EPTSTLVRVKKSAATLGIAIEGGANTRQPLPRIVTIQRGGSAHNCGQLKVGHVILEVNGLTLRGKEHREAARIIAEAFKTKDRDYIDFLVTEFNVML
# T5: GRIP1_3, Q9Y3R0
# T5 sequence (Q9Y3R0 247-346, limits assumed, looked up): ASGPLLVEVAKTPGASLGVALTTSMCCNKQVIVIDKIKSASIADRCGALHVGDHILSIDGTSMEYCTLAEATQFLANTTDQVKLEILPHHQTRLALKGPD
# T6: GRIP1_7, Q9Y3R0
# T6 sequence (Q9Y3R0 999-1096, limits assumed, looked up): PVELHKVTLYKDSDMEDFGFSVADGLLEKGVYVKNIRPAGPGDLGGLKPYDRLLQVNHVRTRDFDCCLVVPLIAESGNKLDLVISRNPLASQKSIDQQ
# T7: MPDZ_12, O75970
# T7 sequence (O75970 1857-1958, limits assumed, looked up): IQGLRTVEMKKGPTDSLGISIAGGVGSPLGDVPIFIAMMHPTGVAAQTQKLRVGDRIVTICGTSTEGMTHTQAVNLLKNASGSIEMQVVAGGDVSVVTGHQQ
# T8: MPP6, Q9NZW5
# T8 sequence (Q9NZW5 125-219, limits assumed, looked up): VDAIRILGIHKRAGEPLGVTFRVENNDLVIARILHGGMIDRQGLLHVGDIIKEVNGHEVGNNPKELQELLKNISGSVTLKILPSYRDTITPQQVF
# T9: PDZD7_3, Q9H5P4
# T9 sequence (Q9H5P4 857-944, limits assumed, looked up): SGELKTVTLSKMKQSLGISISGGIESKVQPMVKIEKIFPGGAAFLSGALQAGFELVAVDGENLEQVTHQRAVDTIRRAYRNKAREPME
# T10: PTPN13_1, Q12923
# T10 sequence (Q12923 1088-1188, limits assumed, looked up): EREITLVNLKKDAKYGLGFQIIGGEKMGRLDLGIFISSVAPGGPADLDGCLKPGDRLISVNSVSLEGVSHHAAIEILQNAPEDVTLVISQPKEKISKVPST
# T11: SHANK1, Q9Y566
# T11 sequence (Q9Y566 658-767, limits assumed, looked up): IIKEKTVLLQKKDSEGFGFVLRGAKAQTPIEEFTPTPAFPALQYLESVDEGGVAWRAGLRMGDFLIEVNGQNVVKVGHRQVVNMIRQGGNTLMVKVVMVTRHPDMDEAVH
# T12: SYNJ2BP, P57105
# T12 sequence (P57105 8-110, limits assumed, looked up): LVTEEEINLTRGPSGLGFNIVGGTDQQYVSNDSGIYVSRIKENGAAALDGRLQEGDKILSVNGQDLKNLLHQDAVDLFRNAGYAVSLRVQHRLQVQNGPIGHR
# Columns and labels:
# Assay in all cases: holdup assay
# Design in all cases: key: below the threshold = too weak to quantify, mostly under pKd 3.1 to 4
# Settings in all cases: plain residues with an end cap or a label only (N-terminal biotin on a linker: ado-ado)
# AHNAK1, Q09666 = biological target: AHNAK1, Q09666
# AHNAK1, Q09666, sequence (Q09666 4-100): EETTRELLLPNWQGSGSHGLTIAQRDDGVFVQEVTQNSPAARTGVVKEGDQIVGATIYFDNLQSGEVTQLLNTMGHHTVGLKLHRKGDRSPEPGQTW
# APBA1_2, Q02410 = biological target: T1, APBA1_2, Q02410
# APBA3_1, O96018 = biological target: T2, APBA3_1, O96018
# DFNB31_1, Q9P202 = biological target: T3, DFNB31_1, Q9P202
# DFNB31_3, Q9P202 = biological target: T4, DFNB31_3, Q9P202
# DLG1_1, Q12959 = biological target: DLG1_1, Q12959
# DLG4_2, P78352 = biological target: DLG4_2, P78352
# DLG4_2, P78352, sequence (P78352 155-259): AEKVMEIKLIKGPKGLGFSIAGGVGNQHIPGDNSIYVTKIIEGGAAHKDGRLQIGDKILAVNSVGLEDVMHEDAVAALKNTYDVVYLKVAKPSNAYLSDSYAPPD
# DLG4_3, P78352 = biological target: DLG4_3, P78352
# DLG4_3, P78352, sequence (P78352 306-403): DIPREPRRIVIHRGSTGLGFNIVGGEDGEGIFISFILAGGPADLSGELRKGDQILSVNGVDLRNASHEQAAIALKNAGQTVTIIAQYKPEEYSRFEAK
# DLG5_1, Q8TDM6 = biological target: DLG5_1, Q8TDM6
# DLG5_1, Q8TDM6, sequence (Q8TDM6 617-713): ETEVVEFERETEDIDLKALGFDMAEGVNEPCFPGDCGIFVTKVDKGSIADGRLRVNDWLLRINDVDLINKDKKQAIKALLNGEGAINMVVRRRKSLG
# FRMPD2_3, Q68DX3 = biological target: FRMPD2_3, Q68DX3
# FRMPD2_3, Q68DX3, sequence (Q68DX3 1073-1166): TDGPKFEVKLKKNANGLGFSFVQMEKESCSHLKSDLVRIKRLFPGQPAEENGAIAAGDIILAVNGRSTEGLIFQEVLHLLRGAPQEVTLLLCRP
# GRID2IP_1, A4D2P6 = biological target: GRID2IP_1, A4D2P6
# GRID2IP_1, A4D2P6, sequence (A4D2P6 1-87): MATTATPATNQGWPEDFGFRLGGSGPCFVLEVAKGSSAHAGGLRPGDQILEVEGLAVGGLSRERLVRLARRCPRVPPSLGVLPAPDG
# GRID2IP_2, A4D2P6 = biological target: GRID2IP_2, A4D2P6
# GRID2IP_2, A4D2P6, sequence (A4D2P6 272-370): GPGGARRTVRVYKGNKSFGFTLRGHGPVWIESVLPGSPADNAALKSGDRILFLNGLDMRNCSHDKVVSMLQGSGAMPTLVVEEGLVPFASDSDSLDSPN
# GRIP1_3, Q9Y3R0 = biological target: T5, GRIP1_3, Q9Y3R0
# GRIP1_7, Q9Y3R0 = biological target: T6, GRIP1_7, Q9Y3R0
# Inadl_8, Q8NI35 = biological target: Inadl_8, Q8NI35
# Inadl_8, Q8NI35, sequence (Q8NI35 1425-1530): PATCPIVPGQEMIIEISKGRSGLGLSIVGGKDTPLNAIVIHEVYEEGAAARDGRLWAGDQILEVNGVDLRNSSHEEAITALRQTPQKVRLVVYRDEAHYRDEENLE
# MAGI1_1, Q96QZ7 = biological target: MAGI1_1, Q96QZ7
# MAGI1_1, Q96QZ7, sequence (Q96QZ7 1-106): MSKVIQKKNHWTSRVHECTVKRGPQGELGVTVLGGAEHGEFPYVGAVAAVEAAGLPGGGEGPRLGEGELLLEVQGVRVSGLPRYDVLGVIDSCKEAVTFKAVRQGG
# MAGI1_2, Q96QZ7 = biological target: MAGI1_2, Q96QZ7
# MAGI1_2, Q96QZ7, sequence (Q96QZ7 456-580): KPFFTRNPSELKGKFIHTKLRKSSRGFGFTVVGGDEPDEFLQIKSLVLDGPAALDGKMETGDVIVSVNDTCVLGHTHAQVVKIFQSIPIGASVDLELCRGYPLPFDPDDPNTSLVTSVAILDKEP
# MPDZ_12, O75970 = biological target: T7, MPDZ_12, O75970
# MPP6, Q9NZW5 = biological target: T8, MPP6, Q9NZW5
# NHERF2_2, Q15599 = biological target: NHERF2_2, Q15599
# NHERF2_2, Q15599, sequence (Q15599 142-238): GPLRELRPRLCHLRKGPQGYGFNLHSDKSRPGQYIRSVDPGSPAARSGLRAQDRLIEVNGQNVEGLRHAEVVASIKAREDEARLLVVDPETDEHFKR
# PDZD7_3, Q9H5P4 = biological target: T9, PDZD7_3, Q9H5P4
# PDZRN4_1, Q6ZMN7 = biological target: PDZRN4_1, Q6ZMN7
# PDZRN4_1, Q6ZMN7, sequence (Q6ZMN7 213-318): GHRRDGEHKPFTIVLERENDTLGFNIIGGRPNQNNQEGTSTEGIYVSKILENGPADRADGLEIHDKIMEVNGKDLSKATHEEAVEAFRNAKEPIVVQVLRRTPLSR
# PTPN13_1, Q12923 = biological target: T10, PTPN13_1, Q12923
# SHANK1, Q9Y566 = biological target: T11, SHANK1, Q9Y566
# SYNJ2BP, P57105 = biological target: T12, SYNJ2BP, P57105
# TJP1_3, Q07157 = biological target: TJP1_3, Q07157
# TJP1_3, Q07157, sequence (Q07157 416-512): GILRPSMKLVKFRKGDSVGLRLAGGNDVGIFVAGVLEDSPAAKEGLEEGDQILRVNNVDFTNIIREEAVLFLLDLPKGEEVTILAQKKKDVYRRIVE
Binder,"pKd (AHNAK1, Q09666)","pKd (APBA1_2, Q02410)","pKd (APBA3_1, O96018)","pKd (DFNB31_1, Q9P202)","pKd (DFNB31_3, Q9P202)","pKd (DLG1_1, Q12959)","pKd (DLG4_2, P78352)","pKd (DLG4_3, P78352)","pKd (DLG5_1, Q8TDM6)","pKd (FRMPD2_3, Q68DX3)","pKd (GRID2IP_1, A4D2P6)","pKd (GRID2IP_2, A4D2P6)","pKd (GRIP1_3, Q9Y3R0)","pKd (GRIP1_7, Q9Y3R0)","pKd (Inadl_8, Q8NI35)","pKd (MAGI1_1, Q96QZ7)","pKd (MAGI1_2, Q96QZ7)","pKd (MPDZ_12, O75970)","pKd (MPP6, Q9NZW5)","pKd (NHERF2_2, Q15599)",also measured
"KEKASTETEC [TRPM1, Q7Z4N2]",below the threshold,below the threshold,below the threshold,below the threshold,3.64,3.96,3.9,3.65,below the threshold,below the threshold,below the threshold,below the threshold,below the threshold,below the threshold,below the threshold,below the threshold,below the threshold,below the threshold,below the threshold,below the threshold,"pKd (PDZD7_3, Q9H5P4): below the threshold; pKd (PDZRN4_1, Q6ZMN7): below the threshold; pKd (PTPN13_1, Q12923): below the threshold; pKd (SHANK1, Q9Y566): below the threshold; pKd (SYNJ2BP, P57105): 3.83; pKd (TJP1_3, Q07157): below the threshold"
"MQILSKPEFI [NPSR1, Q6W5P4]",below the threshold,4.24,below the threshold,below the threshold,below the threshold,below the threshold,below the threshold,3.49,below the threshold,below the threshold,below the threshold,below the threshold,below the threshold,below the threshold,below the threshold,below the threshold,below the threshold,3.56,below the threshold,below the threshold,"pKd (PDZD7_3, Q9H5P4): below the threshold; pKd (PDZRN4_1, Q6ZMN7): below the threshold; pKd (PTPN13_1, Q12923): below the threshold; pKd (SHANK1, Q9Y566): below the threshold; pKd (SYNJ2BP, P57105): below the threshold; pKd (TJP1_3, Q07157): below the threshold"
"QKASRNESTF [POLR1D, P0DPB6]",below the threshold,below the threshold,below the threshold,below the threshold,below the threshold,below the threshold,below the threshold,below the threshold,below the threshold,below the threshold,below the threshold,below the threshold,below the threshold,below the threshold,below the threshold,below the threshold,below the threshold,below the threshold,below the threshold,3.7,"pKd (PDZD7_3, Q9H5P4): 3.71; pKd (PDZRN4_1, Q6ZMN7): below the threshold; pKd (PTPN13_1, Q12923): below the threshold; pKd (SHANK1, Q9Y566): below the threshold; pKd (SYNJ2BP, P57105): below the threshold; pKd (TJP1_3, Q07157): below the threshold"
"KIEDVEITLV [FCHSD2, O94868]",below the threshold,4.07,below the threshold,3.48,4.79,3.79,4.2,below the threshold,3.52,below the threshold,below the threshold,4.63,below the threshold,below the threshold,3.99,below the threshold,below the threshold,below the threshold,3.74,3.86,"pKd (PDZD7_3, Q9H5P4): 5.46; pKd (PDZRN4_1, Q6ZMN7): 3.64; pKd (PTPN13_1, Q12923): below the threshold; pKd (SHANK1, Q9Y566): 4.1; pKd (SYNJ2BP, P57105): 3.82; pKd (TJP1_3, Q07157): below the threshold"
"RDYTQSSSSL [GRM5, P41594]",below the threshold,below the threshold,below the threshold,below the threshold,below the threshold,below the threshold,below the threshold,below the threshold,below the threshold,below the threshold,below the threshold,4.12,below the threshold,below the threshold,below the threshold,below the threshold,below the threshold,below the threshold,below the threshold,4.52,"pKd (PDZD7_3, Q9H5P4): below the threshold; pKd (PDZRN4_1, Q6ZMN7): below the threshold; pKd (PTPN13_1, Q12923): below the threshold; pKd (SHANK1, Q9Y566): 4.7; pKd (SYNJ2BP, P57105): 3.82; pKd (TJP1_3, Q07157): below the threshold"

# Source: paper PMC9482650, “Quantitative fragmentomics allow affinity mapping of interactomes” (Nature Communications, 2022)
